Entries after “also recorded” stand apart in the source; their conditions may differ.
T1: FGFR1c (Homo sapiens, UniProt P11362)
T1 construct: Fc-coupled FGFR ectodomains were immobilized on protein A/G beads; purchased R&D Systems 658FR050
T1 sequence (P11362 22-376 limits assumed): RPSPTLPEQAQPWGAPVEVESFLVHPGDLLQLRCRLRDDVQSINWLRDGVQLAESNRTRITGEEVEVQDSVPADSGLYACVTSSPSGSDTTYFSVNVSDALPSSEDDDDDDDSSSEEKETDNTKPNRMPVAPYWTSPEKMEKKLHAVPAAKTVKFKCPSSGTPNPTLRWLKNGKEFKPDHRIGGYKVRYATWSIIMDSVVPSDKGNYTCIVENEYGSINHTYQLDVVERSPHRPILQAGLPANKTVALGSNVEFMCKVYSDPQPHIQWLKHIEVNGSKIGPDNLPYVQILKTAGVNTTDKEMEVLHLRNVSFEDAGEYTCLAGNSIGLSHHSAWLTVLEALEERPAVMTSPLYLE

B1: sKL: recombinant soluble α-klotho ectodomain, mouse aa 35-982 and human aa 34-981, FLAG- or Strep/His-tagged, purified from HEK293 cells (protein)
chain: EPGDGAQTWARFSRPPAPEAAGLFQGTFPDGFLWAVGSAAYQTEGGWQQHGKGASIWDTFTHHPLAPPGDSRNASLPLGAPSPLQPATGDVASDSYNNVFRDTEALRELGVTHYRFSISWARVLPNGSAGVPNREGLRYYRRLLERLRELGVQPVVTLYHWDLPQRLQDAYGGWANRALADHFRDYAELCFRHFGGQVKYWITIDNPYVVAWHGYATGRLAPGIRGSPRLGYLVAHNLLLAHAKVWHLYNTSFRPTQGGQVSIALSSHWINPRRMTDHSIKECQKSLDFVLGWFAKPVFIDGDYPESMKNNLSSILPDFTESEKKFIKGTADFFALCFGPTLSFQLLDPHMKFRQLESPNLRQLLSWIDLEFNHPQIFIVENGWFVSGTTKRDDAKYMYYLKKFIMETLKAIKLDGVDVIGYTAWSLMDGFEWHRGYSIRRGLFYVDFLSQDKMLLPKSSALFYQKLIEKNGFPPLPENQPLEGTFPCDFAWGVVDNYIQVDTTLSQFTDLNVYLWDVHHSKRLIKVDGVVTKKRKSYCVDFAAIQPQIALLQEMHVTHFRFSLDWALILPLGNQSQVNHTILQYYRCMASELVRVNITPVVALWQPMAPNQGLPRLLARQGAWENPYTALAFAEYARLCFQELGHHVKLWITMNEPYTRNMTYSAGHNLLKAHALAWHVYNEKFRHAQNGKISIALQADWIEPACPFSQKDKEVAERVLEFDIGWLAEPIFGSGDYPWVMRDWLNQRNNFLLPYFTEDEKKLIQGTFDFLALSHYTTILVDSEKEDPIKYNDYLEVQEMTDITWLNSPSQVAVVPWGLRKVLNWLKFKYGDLPMYIISNGIDDGLHAEDDQLRVYYMQNYINEALKAHILDGINLCGYFAYSFNDRTAPRFGLYRYAADQFEPKASMKHYRKIIDSNGFPGPETLERFCPEEFTVCTECSFFHTRKS
modifications: left off: small tags and cut ends
notes: recombinant soluble α-klotho ectodomain, mouse aa 35-982 and human aa 34-981, FLAG- or Strep/His-tagged, purified from HEK293 cells
B2: FGF23: recombinant fibroblast growth factor 23 protein from R&D Systems (protein)
chain: YPDTSPLLGSNWGSLTHLYTATARTSYHLQIHRDGHVDGTPHQTIYSALMITSEDAGSVVITGAMTRRFLCMDLHGNIFGSLHFSPENCKFRQWTLENGYDVYLSQKHHYLVSLGRAKRIFQPGTNPPPFSQFLARRNEVPLLHFYTVRPRRHTRSAEDPPERDPLNVLKPRPRATPVPVSCSRELPSAEEGGPAASDPLGVLRRGRGDARGGAGGADRCRPFPRFV

Key:
[1] = test system: mouse model of CKD; conditions: administration of sKL; cited from earlier work
[2] = test system: FGF19 binding to FGFR isoforms 1c, 2c, 3c, 4; assay: Pull-down and plate binding of FGF19 to FGFR isoforms with sKL or heparin; parameters: species or system human
Sequence of FGF19 binding to FGFR isoforms 1c, 2c, 3c, 4 (O95750 25-216): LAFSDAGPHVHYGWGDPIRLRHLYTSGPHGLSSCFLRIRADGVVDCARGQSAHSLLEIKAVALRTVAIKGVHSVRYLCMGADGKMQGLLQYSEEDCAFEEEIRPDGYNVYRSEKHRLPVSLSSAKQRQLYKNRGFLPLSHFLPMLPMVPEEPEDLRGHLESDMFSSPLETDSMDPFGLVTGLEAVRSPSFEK
Method: To study the interaction between Fc-tagged FGFR isoforms (Fc-FGFR), FGF isoforms, and sKL, immunoprecipitation studies were conducted. Protein A beads (6501, BioVision) and protein G beads (6511, BioVision) were used at 25 μl of a 50% stock slurry per sample in a total bead volume of 50 μl. Beads were washed 5× in activity buffer (50 mM Tris [pH 7.4], 200 mM NaCl, 0.01% Tween 20). Bead spin-down assays were all performed for 2 minutes at 5000 g. Beads were resuspended in 1 ml of activity buffer in a 1.5-ml snap cap tube. One microgram of Fc-FGFR1 to 4 was incubated with the beads for 1 hour on a bead rotator. Control samples were incubated with 2 μg of anti-FGF antibody instead of Fc-FGFR. […] Samples were analyzed using SDS-PAGE and Western blotting.
Proteins were coated on 96-well plates (MaxiSorp; 439454, Thermo Fisher Scientific), and proteins were added to wells in 100 μl of enzyme-linked immunosorbent assay (ELISA) coating buffer (E107, Bethyl Laboratories) with a lid placed overtop and incubated at 4° C. overnight. […] Reactions were stopped with ELISA stop solution (E115, Bethyl Laboratories) and analyzed using the Synergy HI plate reader (BioTek) at 450 nm wavelength. […] As a control to remove background absorbance values, wells were coated with an equal amount of BSA to match the amount of protein coated in experimental wells and treated the same as experimental wells. […]

[3] = molecular target: T1, FGFR1c; assay: Plate-based binding assay, FGFR1c coated, FLAG-sKL detected with anti-FLAG HRP; conditions: for binding of FLAG-sKL to coated FGFR1c: 40 ng FGFR1c coated, 80 ng FLAG-sKL, compared with FGFR4 and FGF23
Method: Proteins were coated on 96-well plates (MaxiSorp; 439454, Thermo Fisher Scientific), and proteins were added to wells in 100 μl of enzyme-linked immunosorbent assay (ELISA) coating buffer (E107, Bethyl Laboratories) with a lid placed overtop and incubated at 4° C. overnight. Plates were washed 5× with 350 μl of assay buffer (50 mM Tris [pH 7.4], 200 mM NaCl, 0.01% Tween 20) on a 50 TS microplate washer (BioTek). Plates were blocked for 1 hour in 200 μl of assay buffer with 0.5% BSA. Plates were washed as before, and proteins were incubated on plates in 100 μl of assay buffer with 0.5% BSA. Proteins or heparin was incubated in orders described in the respective figure legends. Assays using FLAG-tag-based detection were incubated with anti-FLAG coupled to HRP at 1:20,000, and assays using Fc detection were incubated with anti-human Fc coupled to HRP at 1:10,000. Plates were washed as above, and 100 μl of 3,3′,5,5′-tetramethylbenzidine (TMB) substrate (E102, Bethyl Laboratories) was added for 15 to 20 minutes until positive wells developed a dark blue color. Reactions were stopped with ELISA stop solution (E115, Bethyl Laboratories) and analyzed using the Synergy HI plate reader (BioTek) at 450 nm wavelength. […] As a control to remove background absorbance values, wells were coated with an equal amount of BSA to match the amount of protein coated in experimental wells and treated the same as experimental wells. To study the effects of sKL on the binding between paracrine FGFs and FGFRs, plates were run as above except coated with paracrine FGFs. Fc-FGFR1 was preincubated with sKL or vehicle for 60 minutes, and then the combination was added to wells and the assay was run as before.

[4] = test system: adult rat ventricular myocytes (ARVMs); assay: Calcium transients and cell shortening in adult rat ventricular myocytes; type: cell-based
Method: As done before,^69 adult male Wistar rats (150-200 g) were killed and hearts were quickly removed and cannulated via the ascending aorta on a Langendorff system where they were retrograde perfused and digested by type II collagenase. Hearts were perfused with calcium-free Tyrode's solution supplemented with 0.2 mmol/L of ethyleneglycol-bis-((3-aminoethylether)-N,N, N′,N′-tetraacetic acid for 3 minutes. For the digestion, hearts were perfused with Tyrode's solution containing 0.1 mmol/L of CaCl2), 1 mg/ml of type II collagenase (Worthington), and 1 mg/ml of BSA for 3 to 4 minutes at room temperature. Cells were resuspended in Tyrode's solution containing 1 mmol/L of CaCl2). Tyrode's solution contains 130 mM NaCl, 5.4 mM KCl, 0.4 mM NaH2PO4, 0.5 mM MgCl2, 25 mM N-2-hydroxyethylpiperazine-N-2-ethanesulfonic acid, and 22 mM glucose. Adult rat ventricular myocytes (ARVMs) were loaded with the fluorescent Ca^2+ dye Fluo-3 AM (Thermo Fisher Scientific) for cytosolic Ca^2+ measurements. […] Cytosolic Ca^2+ transients were recorded under 1 Hz of field stimulation using 2 parallel platinum electrodes. […] Cell contraction was stimulated as the difference in cell length between rest and contraction (during electrical stimulation), expressed as a percentage of shortening of the cell length. […]

Molecule | development of ventricular arrhythmias [1] | binding of FGF19 to any of the FGFR isoforms [2] | binding of FLAG-sKL to coated FGFR1c [3] | binding of FLAG-sKL to coated FGFR1c ([3]; listed as FLAG-sKL) | FGFR1c binding, protein from HEK293 lysates instead of supernatants ([3]; 200 ng FGFR1c coated) | peak fluorescence [Ca2+]i transients (F/F0) ([4]; FGF23 10 ng/ml, 2 minutes perfusion) | cell contraction (cell shortening) ([4]; FGF23 alone)
B1 | protects | did not mediate binding; also recorded: did not lead to complex formation; also recorded: did not bind any of the FGFR isoforms | highest affinity | highest affinity; also recorded: bound FGFR1c | smaller increase |  | 
B2 |  |  |  |  |  | increased systolic | increased cell contraction
